Experiments:
[1] = LC-MS assay of GH3 conjugation of IAA with Asp or Glu; format: biochemical; details: for kcat (hrs−1) IAA-Asp: conjugation of IAA with Asp by recombinant GH3 protein, IAA-Asp product by LC-MS; for kcat (hrs−1) IAA-Glu: conjugation of IAA with Glu by recombinant GH3 protein, IAA-Glu product by LC-MS
Procedure: (§1) To detect and monitor the formation of acyl conjugates with 2,4-D or dicamba, a sensitive LC-MS method was developed using the respective amino acid conjugate standards. […] The reaction was performed at 30° C., 105 rpm, for 3 hours in buffer containing 20 mM Tris-HCl (pH 8.0), 5 mM MgCl2, 5 mM auxin (IAA, 2,4-D or dicamba), 5 mM ATP, 5 mM Asp or Glu, 1 mM DTT and 44 to 164 μg/mL purified GH3 protein in 100 μL reaction. After 3 hours of reaction, 400 μL 100% MeOH was added to the reaction mixture for protein precipitation. The supernatant was diluted 20× in water and then analyzed by LC-MS (AB Sciex 4000 QTrap coupled with Shimadzu Nexera UHPLC) using a Phenomenex Luna 3 μm Phenyl-Hexyl (00B-4256-Y0) column. The concentration of the conjugates was calculated based on the standards. Kinetic parameters were estimated by fitting initial velocity values to the Michaelis-Menten equation.
(§2) The GH3 superfamily conjugase activity analysis of IAA, 2,4-D or dicamba with Asp or Glu was done using LC-MS to analyze the final conjugate products as described in Example 1. Protein sequences of GH3 homologs (Table 3) were obtained from public databases (NCBI, http://www.ncbi.nlm.nih.gov/) by Blast analysis of AtGH3.17 protein sequence (accession # Q9FZ87). Coding sequences were designed for optimal expression in E. coli based on the protein sequences and synthesized. Synthesized coding sequences along with N-term his-tag coding sequences were cloned into a pET24a-based E. coli expression vector. The E. coli expression vectors were transformed into OverExpress C41(DE3) cells (Lucigen) for protein expression. Recombinant E. coli strains were inoculated into 5 ml LB media supplemented with 40 mg/L kanamycin and cultured overnight at 37° C. The overnight culture (0.5 mL) was inoculated into 50 mL LB medium plus 40 mg/L kanamycin and grown at 30° C. until OD600 reached 0.6. The cultures were induced with 0.2 mM IPTG at 16° C., 230 rpm overnight. Cells were harvested by centrifugation at 7,000 rpm for 10 mins. The cell pellet from 50 mL of cell culture was frozen and thawed twice and then lysed in 800 μL lysis buffer A (150 mM NaCl, 50 mM Tris-HCl pH 8.0, 5 mM MgCl2, 10% glycerol) plus 20 mM imidazole, 1 mM DTT, 0.2 mg/ml lysozyme, 1/200 protease inhibitor cocktail (EMD set3, EDTA free) and 1/2000 endonuclease. Lysate was then centrifuged at 13,000 rpm for 30 min at 4° C. Supernatant was loaded onto 200 μL Ni-NTA columns pre-equilibrated with buffer A with 20 mM imidazole at 4° C. Each column was then washed with (1) 2×800 μL of buffer A with 10 mM imidazole, (2) 2×800 μL of buffer A with 20 mM imidazole and (3) 2×200 μL of buffer A with 50 mM imidazole. Protein was eluted with 200 μL of buffer A with 250 mM imidazole. The concentration was measured by Bradford assay. Purified protein was used in conjugation reaction assays as described in example 1.

[2] = LC-MS assay of GH3 conjugation of 2,4-D with Asp or Glu; format: biochemical; details: 5 mM 2,4-D substrate; for kcat (hrs−1) 2,4-D-Asp: conjugation of 2,4-D with Asp by recombinant GH3 protein, 2,4-D-Asp product by LC-MS; for kcat (hrs−1) 2,4-D-Glu: conjugation of 2,4-D with Glu by recombinant GH3 protein, 2,4-D-Glu product by LC-MS
Procedure: as §1, §2

Molecule	kcat (hrs−1) IAA-Asp [1]	kcat (hrs−1) IAA-Glu [1]	IAA conjugation activity with Asp or Glu ([1]; result in words)	kcat (hrs−1) 2,4-D-Asp [2]	kcat (hrs−1) 2,4-D-Glu [2]	kcat, conjugation of IAA with Asp ([1]; IAA with Asp)	kcat, conjugation of IAA with Glu ([1]; IAA with Glu)	Conjugation of Glu to IAA ([1]; result in words)
SmXP_002981880: GH3 protein, accession XP_002981880 (protein, listed as Selaginella moellendorffii) MAASAIAEFEDACKNAASIQEELLLGILRKNACCEYLQKYGSPLTVAAFKSQVPVIGYDDIRSDLERIAGGDRGQILCHDPITSFFTSSGTSSGKNKNIPATYENTVSVVKVLESSYAYKTNYFDLGKGRSVSLLYFKDLHATKSGLVFGPVTAHGIRSTRFRQVWRSSRTTPYEVLVAASDFRELTYCHLLCALLQRHEVEQVECMYAYSICEALRLFQNEYWEELCNDIRTASLSKTKVMDPKLRKAFERAGVFRSKCGNAMEADKIFKICSNESWSGILPLLFPKAKLVSAVVTGAMTHYVPTLSFYAGDQLPIVGQGFFSSEGGIGINIDPLSPPEDVIYTVTPRSLYYEFLPLGATEALSMHEVVIGELYEILVTNFAGLYRCRMGDVVQITSFFHGAPQMAYHHRKNAVMCINNETVDEQMLQNVVNKVSKDAGVEVLDFMIYGDPAAVPPSYTIFWELGNAKDYSKTQVLEQCCANVLKSFNPEHTRKGTDGLIDSFELVIVKKGTFERLMEEAVKNGASPAQYKTPRCVASSRILEALNSGRVHSYKSSAMSKVN	1.475 h⁻¹	1.759 h⁻¹	can also conjugate IAA to Asp and Glu	0.144 h⁻¹	0.739 h⁻¹			
OsGH3-10: GH3 protein, accession Q6ZLA7 (protein, listed as Oryza sativa) MAAKGISTIGAASRSLSSSLMAAAKEPDVENLRLIEELTSNVDAVQERVLAEILGRNADAEYLDKCGLDASDTDRATFRAKVPVASYDDLKPYVKRIANGDRSPILSTHPIIEFFTSSGTSAGERKLMPIVTDEMARREVLSSLATSVLNVYVPGLHTGKGLYFLFARSETKTPGGLTAQPALTSVYKSEHFKRAYAYTSPMAAILCEDASQSMYAQMLCGLCQRHDVLRVGAVFAAALVRAIRFLQLNWAQLAADIETGELNPRVTDPSDRECSRGDWTGIVTRLWPKTKCLNVVVTGVMAQYIPTLQYYSGGLPIVSGMYASSECFFGLNLRPLCGPSEVSYTIMPNTAYFEFLPVGEAVDASNLVELARVEDGREYEVVVTTYAGLNRYRVGDVLCVTGFHNAAPQFRFVRRQSVLLSIEADKTDEAELQRAVERASSALLRPRGASIVEYTSRACTERVPGHFSPALPHWTLAP	0.000 h⁻¹	0.000 h⁻¹	IAA-inactive	0.000 h⁻¹	0.000 h⁻¹			
AtGH3-17: GH3 protein, accession Q9FZ87 (protein, listed as Arabidopsis thaliana) MIPSYDPNDTEAGLKLLEDLTTNAEAIQQQVLHQILSQNSGTQYLRAFLDGEADKNQQSFKNKVPVVNYDDVKPFIQRIADGESSDIVSAQPITELLTSSGTSAGKPKLMPSTAEELERKTFFYSMLVPIMNKYVDGLDEGKGMYLLFIKPEIKTPSGLMARPVLTSYYKSQHFRNRPFNKYNVYTSPDQTILCQDSKQSMYCQLLCGLVQRSHVLRVGAVFASAFLRAVKFLEDHYKELCADIRTGTVTSWITDSSCRDSVLSILNGPNQELADEIESECAEKSWEGILRRIWPKAKYVEVIVTGSMAQYIPTLEFYSGGLPLVSTMYASSECYFGINLNPLCDPADVSYTLLPNMAYFEFLPVDDKSHEEIHFATHSNTDDDDDALKEDLIVNLVNVEVGQYYEIVITTFTGLYRYRVGDILKVTGFHNKAPQFRFVQRRNVVLSIDTDKTSEEDLLNAVTQAKLNHLQHPSSLLLTEYTSYADTSSIPGHYVLFWELKPRHSNDPPKLDDKTMEDCCSEVEDCLDYVYRRCRNRDKSIGPLEIRVVSLGTFDSLMDFCVSQGSSLNQYKTPRCVKSGGALEILDSRVIGRFFSKRVPQWEPLGLDS	51.838 h⁻¹	867.723 h⁻¹		0.424 h⁻¹	0.988 h⁻¹	52 h⁻¹	868 h⁻¹	
SbEES16535: GH3 protein, accession EES16535 (protein, Sorghum bicolor) MAHTPAMENSYVQVHHLATSMAIHTHKPFLAPPKHVHLAFHSPTSAPSRLLATTRSRPGLSQPAAMMAETDADKLRFIEEVTADVAAVQERVLAEILSRNADAEYLSTRCGGATDRATFRAKVPMVTYEDLQPYILRIAHGDRSPILSGSGYPVSELLTSSGAGDRKLIPVVDDDHDRHHRLHSLVGAVVNQYVPGLDKGSGLYFLFVKSETTTPGGLPARTILTRIFTSDGVWKLPYNPRRGLTSPAAAVVCEDTFQSMYTQMLCGLCHRHSVLRVGAAFASGVLRAIRFFQRNWPQLAADIDAGTITDRVTDHVLRQALAGVLTQPDPDLARVVRSEGSKADDGADMAGIIARLWPNTKYVHAVATGSMAHYVPALNHYSGGLPIVSTAYFSSECSVGINLRPMCDPSEVSYTVMPNMAYFEFLPTDDDDATASATSQLVELAGVEVGREYELVVTTYSGLCRYRVGDVLRVTGFHNTAPQLRFVRRRNAVLSVESDKTDEVELQRAVDRASAALLRPLGAAVADYTARTCAETVPGHYVVYWELQLPLGAADVVVDGGDVLDRCCLEMEEALSSVYRQSRVADGTVGPLEIRVVRPGTFEELADHAVARGASVGQYKVPRCVTAPPDIELLDSRVVSNHFSPALPKWVPG	0.000 h⁻¹	0.000 h⁻¹	IAA-inactive	0.000 h⁻¹	0.000 h⁻¹			
AtGH3-3: GH3 protein, accession O22190 (protein, listed as Arabidopsis thaliana) MTVDSALRSPMMHSPSTKDVKALRFIEEMTRNVDFVQKKVIREILSRNSDTEYLKRFGLKGFTDRKTFKTKVPVVIYDDLKPEIQRIANGDRSMILSSYPITEFLTSSGTSAGERKLMPTIDEDMDRRQLLYSLLMPVMNLYVPGLDKGKALYFLFVKTESKTPGGLPARPVLTSYYKSEQFKRRPNDPYNVYTSPNEAILCPDSSQSMYTQMLCGLLMRHEVLRLGAVFASGLLRAIGFLQTNWKELADDISTGTLSSRISDPAIKESMSKILTKPDQELADFITSVCGQDNSWEGIITKIWPNTKYLDVIVTGAMAQYIPMLEYYSGGLPMACTMYASSESYFGINLKPMCKPSEVSYTIMPNMAYFEFLPHHEVPTEKSELVELADVEVGKEYELVITTYAGLNRYRVGDILQVTGFYNSAPQFKFVRRKNVLLSIESDKTDEAELQSAVENASLLLGEQGTRVIEYTSYAETKTIPGHYVIYWELLVKDQTNPPNDEVMARCCLEMEESLNSVYRQSRVADKSIGPLEIRVVKNGTFEELMDYAISRGASINQYKVPRCVSFTPIMELLDSRVVSTHFSPALPHWSPERRR	0.000 h⁻¹	0.000 h⁻¹	IAA-inactive	0.000 h⁻¹	0.000 h⁻¹			
AlGH3-12: GH3 protein, accession XP_002871561 (protein, listed as Arabidopsis lyrata) MKPISDINESFEKQLKYLTSDVKQIQDNLLEEIITPNTKTEYLQRFLIGRFDKDLFKKNVPIVTYEDIKPYLDRVVNGESSDVISARPITGFLLSSGTSGGAQKMMPWNNKYLDNLTFIYDLRMQVITKHVKGVEEGKGMMFLFTKQESMTPSGLPARVATSSYFKSDYFKHRPSNWYYSYTSPDEVILCPNNTQSLYCHLLCGLVQRDEVVRTGSIFASVMVRAIEVLKNSWEELCSNIRSGHLSNWVTDLGCQSSVSLVLGGPRPELADTIEEICNQKSWKGIVKRLWPNTKYIETVVTGSMGQYVPMLNYYCNDLPLVSTTYGSSETTFGINLDPLCKPEDVSYTFMPNMSYFEFIPMDGDNNDVVDLEDVKLGCTYEPVVTNFAGLYRMRVGDIVLVTGFYNNAPQFKFVRRENVVLSIDSDKTNEEDLFKAVSQAKLVLESSGLDLKDFTSYADTSTFPGHYVVYLEVDTKEGEEKKTAQFELDEEALSMCCLVMEESLDNVYKRCRFKDGSIGPLEIRVVRQGTFISLMDFFISQGASTGQYKTPRCIKSGKALQVLETCVVAKFFSS								can also conjugate Glu to IAA
